The assay deals with Ad5 hexon capsid protein with DogTag inserted into the HVR5 loop, on Ad5 virions (Ad5-HVR5-DogTag) (human adenovirus serotype 5 (Ad5)) (UniProt P04133).

Substance “polyhistidine-tagged recombinant DogCatcher with 18 copies of the NANP repeat sequence from the Plasmodium falciparum circumsporozoite protein fused to the C-terminus” returned a ligand coverage (% hexon) greater than 90%.

For the origin of these results see patent US20240240203A1.
